One assay concerns the target T1, RING1B (human, UniProt Q99496 1-336).
T1 construct: RING1B, human, catalytic E3 ligase subunit of PRC1; called full length in the discussion; primers run from the second codon to the stop codon; no cleavage of the tag is described; also called strep-tagged RING1B; catalytic subunit RING1B; source: Sf21 insect cells (MultiBac baculovirus), alone or co-expressed with other PRC1 subunits; in lysate and purified (strep-tactin resin, two S200 SEC …)
T1 sequence (looked up): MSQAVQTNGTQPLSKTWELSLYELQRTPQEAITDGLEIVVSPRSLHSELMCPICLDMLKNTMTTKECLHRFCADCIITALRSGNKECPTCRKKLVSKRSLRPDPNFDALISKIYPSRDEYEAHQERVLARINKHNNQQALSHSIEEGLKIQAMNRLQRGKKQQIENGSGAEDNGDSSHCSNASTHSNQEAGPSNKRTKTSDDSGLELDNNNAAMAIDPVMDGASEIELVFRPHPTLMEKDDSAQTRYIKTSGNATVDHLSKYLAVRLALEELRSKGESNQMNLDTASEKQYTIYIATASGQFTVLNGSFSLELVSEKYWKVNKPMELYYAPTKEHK
Put plainly: MST; UbcH5c labelled with NT-547 at 100 nM; RING1B (from 80 uM at 2x) or RING1B-PCGF2 (from 38 uM at 2x) in 16 serial dilutions; HEPES 50 mM pH 8, NaCl 75 mM, DTT 1 mM, Tween 0.05%; Monolith NT.115, LED 20%, MST power 40%. The settings on record: both partners purified.

A further assay concerns the target T2, RING1B-PCGF2 heterodimer (human, UniProt Q99496 1-336; P35227 1-344).
T2 construct: RING1B, human, full length; the same chain as m1; PCGF2 (aka Mel18), human, full length; the same chain as m2; Pre-formed complex titrated as one molecule against UbcH5c; also called RING1B-PCGF2 subcomplex; source: Sf21 insect cells (MultiBac co-expression), purified (strep-tactin resin, two S200 SEC steps)
T2 sequence (looked up) 1: T1 sequence (looked up)
T2 sequence (looked up) 2: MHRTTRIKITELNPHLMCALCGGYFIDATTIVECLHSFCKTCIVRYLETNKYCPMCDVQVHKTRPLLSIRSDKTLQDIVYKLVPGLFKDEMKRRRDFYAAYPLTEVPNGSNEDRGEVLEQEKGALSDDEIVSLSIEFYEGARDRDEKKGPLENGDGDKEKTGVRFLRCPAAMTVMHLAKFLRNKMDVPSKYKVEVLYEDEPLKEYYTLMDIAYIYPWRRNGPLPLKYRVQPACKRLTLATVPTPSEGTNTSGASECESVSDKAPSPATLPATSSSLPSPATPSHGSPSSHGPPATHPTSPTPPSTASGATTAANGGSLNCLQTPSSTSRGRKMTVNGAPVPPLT
The description is as above. The settings on record: both partners purified.

What is called Kd is a measure of binding affinity in units of concentration.

B1: UbcH5c (enzyme)
chain: not shown
modifications: NT-547 fluorescent dye on Cys85
notes: UbcH5c, ubiquitin-conjugating E2 enzyme; also called UbcH5c E2 enzyme; E2 enzyme; source: E. coli Rosetta (DE3), purified (GST resin, 3C cleavage, Ni-NTA flow-through, S200 SEC)
In the case of B1, the Kd with RING1B is 230 ± 80 nM; with RING1B-PCGF2 heterodimer, 4100 ± 1000 nM.
